The text below walks through data of patent US20150044237A1 (CENTRE NATIONAL DE LA RECHERCHE SCIENTIFIQUE, published 2015).

Test [1] deals with T1, Fas (CD95/APO-1) on Jurkat cells (human, UniProt P25445 26-335).
T1 sequence (looked up): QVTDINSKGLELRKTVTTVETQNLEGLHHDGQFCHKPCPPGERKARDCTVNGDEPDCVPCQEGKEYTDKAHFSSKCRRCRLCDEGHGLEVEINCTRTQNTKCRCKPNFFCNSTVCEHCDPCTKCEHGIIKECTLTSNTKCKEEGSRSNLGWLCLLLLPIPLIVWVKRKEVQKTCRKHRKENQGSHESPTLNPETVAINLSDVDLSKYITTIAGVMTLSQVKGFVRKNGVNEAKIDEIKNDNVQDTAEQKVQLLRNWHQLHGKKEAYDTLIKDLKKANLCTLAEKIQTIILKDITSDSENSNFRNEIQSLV
The experiment in a line: cell-based or functional assay.

The target in another test is T2, CD28 on human cells (human, UniProt P10747 19-220).
T2 construct: whole, on cells; also called CD28 receptor
The experiment in a line: inferred from inhibition of cell death by anti-CD28 blocking antibody on JKCD28high cells. How it is done:
FIG. 14: Effect of the pFasL and CD80-pFasL chimeras on the JKCD28low, JKCD28high and JKCD28delta cell lines. Panel A: membrane expression of Fas and CD28 on the three cell lines. The cells were stained with the indicated antibodies, or with an isotype-matched negative control antibody (shaded histograms) then analysed by flow cytometry. Panel B: the apoptotic activity of the pFasL and CD80-pFasL chimeras was tested against the three cell lines (JKCD28 low: empty triangles; JKCD28high: filled triangles; JKCD28delta: squares) at a range of concentrations, measured in the FasL ELISA. Cell death was estimated by the MTT viability assay. Mean and sd from three distinct experiments. Panel C: the pFasL and CD80-pFasL chimeras were used at a non-saturating concentration that triggers a suboptimal cell death. The JKCD28low and JKCD28high cell lines were pre-incubated without (no antibody) or with an isotype-matched control antibody at 10 μg/mL or with the CD28.2 clone of anti-CD28 blocking antibody at 10, 3 or 1 μg/mL. Cell death was measured using the MTT cell viability assay. Mean and sd from three distinct experiments.
To analyse this possibility, the inventors conducted experiments where CD28 was blocked using a neutralising antibody. […]

B1: CD80-pFasL (other)
chain: VIHVTKEVKEVATLSCGHNVSVEELAQTRIYWQKEKKMVLTMMSGDMNIWPEYKNRTIFDITNNLSIVILALRPSDEGTYECVVLKYEKDAFKREHLAEVTLSVKADFPTPSISDFEIPTSNIRRIICSTSGGFPEPHLSWLENGEELNAINTTVSQDPETELYAVSSKLDFNMTTNHSFMCLIKYGHLRVNQTFNWNTTKQEHFPSSIPDSQTKVFPQDKVILVGSDITFCCVSQEKVLSALIGHTNCPLIHLDGENVAIKIRNISVSASSGTNVVFTTEDNIFGTVISRALQKELAELRESTSQMHTASSLEKQIGHPSPPPEKKELRKVAHLTGKSNSRSMPLEWEDTYGIVLLSGVKYKKGGLVINETGLYFVYSKVYFRGQSCNNLPLSHKVYMRNSKYPQDLVMMEGKMMSYCTTGQMWARSSYLGAVFNLTSADHLYVNVSELSLVNFEESQTFFGLYKL
notes: Polymeric, produced in HEK 293T cells; also called CD80IgFasL; CD80-IgFasL polymeric chimera
B1: in test [1], the “C50 against pFasL, JKCD28delta cell line” value is 10 fold increase against pFasL; the “C50 against pFasL, JKCD28high cell line” value is 2.5 fold decrease against pFasL; the “C50 against pFasL, JKCD28low cell line” value is 17 fold decrease against pFasL. The binding result with CD28 on human cells is recorded as “binds”.
